Measurements reported in patent publication US20060019871A1, “Endothelial cell apoptosis induced by fibrinogen gamma chain C-terminal fragment” (The Regents of the University of California, priority 2004, published 2006).
Like-named read-outs stand apart in the source and are kept apart here.

Tests used:
[1] = test system: γC-399tr-induced apoptosis; test: Blocking of γC-399tr-induced apoptosis by MAPK inhibitors (FIG. 6); format: cell-based
Experimental: 10 μM of inhibitor is the saturating concentration.
It was further observed that endothelial cell apoptosis induced by γC-399tr can be blocked by p38 MAP kinase inhibitor SB-203580 but not inhibitors of some other MAP kinases.

[2] = test system: DLD-1 human colon adenocarcinoma cells; test: Tumor growth of DLD-1 xenograft in SCID mice; format: in vivo; conditions: injections of recombinant γC-399tr in PBS
Experimental: Human breast adenocarcinoma BT20 cells are subcutaneously injected into 7-9-week-old male non-obese diabetes/severe combined immunodeficiency (NOD/SCID) mice. The animals are divided into 4 groups, each having 5 animals. Each animal receives 2×10^6 cells in the injection. The treatment groups, Groups 1-3, are injected daily intraperitoneally with recombinant γC. The control group, Group 4, receives injections of equal volumes of PBS each day. The dimensions of the tumors are measured and the tumor volumes are calculated. After two weeks of treatment, the animals are sacrificed and the tumors are excised, sectioned, and evaluated histologically. To examine the tumor vasculatures, the tumor sections are stained by CD31 anti-mouse monoclonal antibody (PharMingen, San Diego, Calif.). Tumor size and the extent of tumor vasculature are compared among all treatment and control groups.
Following the general procedure described in Example 2, DLD-1 human colon adenocarcinoma cells were injected into SCID mice. Subsequently, the treatment groups of mice received injections of recombinant γC-399tr in PBS, whereas the control group received PBS injections.

CHO cells = test: MTS (CellTiter96) proliferation assay, CHO cells (FIG. 2); format: cell-based, Chinese hamster
Experimental: (§1) FIG. 2. […] The numbers of proliferating cells were determined using a tetrazolium compound MTS (CellTiter96® assay).

BAE cells [3] = test: Annexin V / propidium iodide binding, flow cytometry, apoptosis of BAE cells (FIG. 3); format: cell-based, bovine
Experimental: FIGS. 3A and 3B. […] BAE cells were treated with 10 μg/ml recombinant soluble γC or native fibrinogen for the indicated time. The binding of annexin V or propidium iodide (PI) to the treated BAE cells was measured in flow cytometry (FIG. 3A).

caspase-3 and caspase-7 = test: Activation of caspases by γC in CPAE cells; format: cell-based, calf; conditions: protein expression and enzymatic activity
β3-CHO cells = test: MTS (CellTiter96) proliferation assay, β3-CHO cells (FIG. 2); format: cell-based, Chinese hamster
Experimental: as §1

BAE cells [4] = test: MTS (CellTiter96) proliferation assay, BAE cells (FIG. 2); format: cell-based, bovine
Experimental: as §1

MAP kinases Erk1 and 2 = test: Activation of MAP kinases Erk1 and 2, western blotting in β3-CHO cells (FIG. 4); format: cell-based, Chinese hamster; conditions: soluble γC in the medium, 30 min
Experimental: FIG. 4. Fibrinogen γC-induced activation of MAP kinases Erk1 and 2. CHO cells expressing recombinant αvβ3 (β3-CHO cells) were incubated with soluble γC at indicated concentrations for 30 min and the levels of MAP kinases (Erk1 and 2) were determined by western blotting with anti-phosphorylated Erk 1 and 2.
It remains a possibility that γC acts as an antagonist and blocks signaling from other integrin ligands by competing for binding to integrins.

[5] = test system: Bovine Arterial Endothelial (BAE) cell; test: Growth arrest of BAE cells in culture (FIG. 1); format: cell-based
Experimental: FIG. 1. Fibrinogen γC-induced growth arrest of Bovine Arterial Endothelial (BAE) cell. […] Fragment D required much higher concentrations (100 μg/ml) to induce detectable apoptotic effects.

[6] = test system: calf pulmonary artery endothelial (CPAE) cells; test: CPAE proliferation / apoptosis, MTS and Phosphate assay (FIG. 5); format: cell-based
Experimental: FIG. 5. Inhibition of CPAE Proliferation induced by fibrinogen γC and γC-399tr. CPAE proliferation was measured by using a MTS and Phosphate assay. 10% serum-induced proliferation was inhibited by γC in a concentration-dependent fasion 48 hours passed after 1×10^5/ml. The γC-399tr is approximately 3 times more efficient in inducing apoptosis of CPAE cells.
A deletion mutant of γC that has 12 amino acids truncated from the C-terminal of γC, termed γC-399tr (having the amino acid sequence of 1-249 of SEQ ID NO:3), was recombinantly produced and purified.

With `C[S+]([O-])c1ccc(-c2nc(-c3ccncc3)c(-c3ccc(F)cc3)[nH]2)cc1` (stereo not drawn) [SB-203580] the “saturating concentration of inhibitor for blocking γC-399tr-induced apoptosis” value [1] was 10 µM and the “blocking of γC-399tr-induced apoptosis” value ([1]; endothelial cell) was “blocks”.

B1: γC-399tr: Deletion mutant of γC with 12 amino acids truncated from the C-terminal; amino acid sequence 1-249 of SEQ ID NO:3 (protein, listed as Homo sapiens)
chain: KDCQDIANKGAKQSGLYFIKPLKANQQFLVYCEIDGSGNGWTVFQKRLDGSVDFKKNWIQYKEGFGHLSPTGTTEFWLGNEKIHLISTQSAIPYALRVELEDWNGRTSTADYAMFKVGPEADKYRLTYAYFAGGDAGDAFDGFDFGDDPSDKFFTSHNGMQFSTWDNDNDKFEGNCAEQDGSGWWMNKCHAGHLNGVYYQGGTYSKASTPNGYDNGIIWATWKTRWYSMKKTTMKIIPFNRLTIGEGQQ
modifications: C-terminal region of fibrinogen gamma chain, isoform gamma-A, residues 177-437
B1 was tested, and the “tumor size versus PBS control group” value [2] was “reduced tumor size”.

B2: γC: Fibrinogen γ-chain C-terminal domain, 30 Kd, about 250 amino acid residues, sequence as set forth in SEQ ID NO:3 (protein, listed as Homo sapiens)
chain: KDCQDIANKGAKQSGLYFIKPLKANQQFLVYCEIDGSGNGWTVFQKRLDGSVDFKKNWIQYKEGFGHLSPTGTTEFWLGNEKIHLISTQSAIPYALRVELEDWNGRTSTADYAMFKVGPEADKYRLTYAYFAGGDAGDAFDGFDFGDDPSDKFFTSHNGMQFSTWDNDNDKFEGNCAEQDGSGWWMNKCHAGHLNGVYYQGGTYSKASTPNGYDNGIIWATWKTRWYSMKKTTMKIIPFNRLTIGEGQQHHLGGAKQAGDV
modifications: C-terminal region of fibrinogen gamma chain, isoform gamma-A, residues 177-437
With B2 the “effect on proliferation of CHO cells” value (CHO cells) was “little or no effect”, the “effect on proliferation of CHO cells” value (CHO cells; listed as γC domain) was “not” and the “induction of apoptosis of BAE cells” value (BAE cells [3]; 10 μg/ml, annexin V / PI binding) was “induced apoptosis”. The “time at which apoptosis of BAE cells was detectable” value (BAE cells [3]; 10 μg/ml, annexin V / PI flow cytometry) was 2 to 4 h, the “time in which apoptosis of BAE cells was induced” value (BAE cells [3]; annexin V binding assays) was 2 to 4 h and the “activation of caspase-3 and caspase-7” value (caspase-3 and caspase-7) was “activation of caspase-3 and caspase-7”. For the same molecule, the “effect on proliferation of β3-CHO cells” value (β3-CHO cells) was “little or no effect”, the “effect on proliferation of β3-CHO cells” value (β3-CHO cells; listed as γC domain) was “not” and the “level of γC effectively blocking proliferation of BAE cells” value (BAE cells [4]) was “below 1 μg/ml”. For the same molecule, the “proliferation of BAE cells in the MTS assay” value (BAE cells [4]) was “blocked proliferation”, the “concentration inducing MAP kinase activation” value (MAP kinases Erk1 and 2) was “less than 1 μg/ml” and the “proliferation of BAE cells” value ([5]; 12.5 μg/ml each in culture media, 1×10^4 cells per well, 48 hours) was “blocked proliferation”. For the same molecule, the “concentration blocking proliferation of BAE cells” value ([5]; FIG. 1 as cited) was “less than 1 μg/ml”, the “apoptosis in CPAE cells” value [6] was “induced apoptosis” and the “10% serum-induced CPAE proliferation” value ([6]; 48 hours, 1×10^5/ml) was “inhibited”.
